Assay results reported in US20060258000A1, “Use of steady-state oxygen gradients to modulate animal cell functions” (priority 2003, published 2006).

Experiments:
[1] = test system: CYP3A
[2] = test system: CYP2B
Procedure: Primary rat hepatocytes from 6-well plates or chamber slides were lysed and scraped in SDS buffered (10 mM Tris/HCl (ph 7.4), 0.1% SDS). Samples were added to microcentrifuge tubes with 5 μl of PMSF, homogenized with a pestle, and centrifuged at 16,200 g for 5 minutes. Total protein content in the supernatant was determined using the DC protein assay (Bio-Rad, Hercules, Calif.) and used to normalize sample loading. Samples prepared in sample buffer were loaded (10-20 μg/well) for electrophoresis on a 10% polyacrylamide gel. After overnight transfer on to a PVDF membrane, blots were incubated with a blocking buffered (20 mM Tris-Cl (pH 7.4), 500 mM NaCl, 0.1% Tween 20, and 5% (w/v) milk powder) and washed with buffer without milk powder, incubation for 1 h with primary antibody against rat PEPCK or rat CYP2B (Genset, Woburn, Mass.) was followed by washing and incubation with either anti-sheep (PEPCK) or anti-goat (CYP2B) HRP-conjugated secondary antibody for 45 minutes. After washing, the Pierce SuperSignal chemiluminescence reagent was used for detection. All electrophoresis gels were run with molecular mass markers to verify PEPCK bands (67 kDa) or CYP2B1/2 bands (56 kDa). Optical density measurements were obtained using scanned blot images with 1d gelscan software (Metamorph).

B1: epidermal growth factor (protein, UniProt P01133 23-1207, looked up)
Pro-epidermal growth factor: PQHWSCPEGTLAGNGNSTCVGPAPFLIFSHGNSIFRIDTEGTNYEQLVVDAGVSVIMDFHYNEKRIYWVDLERQLLQRVFLNGSRQERVCNIEKNVSGMAINWINEEVIWSNQQEGIITVTDMKGNNSHILLSALKYPANVAVDPVERFIFWSSEVAGSLYRADLDGVGVKALLETSEKITAVSLDVLDKRLFWIQYNREGSNSLICSCDYDGGSVHISKHPTQHNLFAMSLFGDRIFYSTWKMKTIWIANKHTGKDMVRINLHSSFVPLGELKVVHPLAQPKAEDDTWEPEQKLCKLRKGNCSSTVCGQDLQSHLCMCAEGYALSRDRKYCEDVNECAFWNHGCTLGCKNTPGSYYCTCPVGFVLLPDGKRCHQLVSCPRNVSECSHDCVLTSEGPLCFCPEGSVLERDGKTCSGCSSPDNGGCSQLCVPLSPVSWECDCFPGYDLQLDEKSCAASGPQPFLLFANSQDIRHMHFDGTDYGTLLSQQMGMVYALDHDPVENKIYFAHTALKWIERANMDGSQRERLIEEGVDVPEGLAVDWIGRRFYWTDRGKSLIGRSDLNGKRSKIITKENISQPRGIAVHPMAKRLFWTDTGINPRIESSSLQGLGRLVIASSDLIWPSGITIDFLTDKLYWCDAKQSVIEMANLDGSKRRRLTQNDVGHPFAVAVFEDYVWFSDWAMPSVMRVNKRTGKDRVRLQGSMLKPSSLVVVHPLAKPGADPCLYQNGGCEHICKKRLGTAWCSCREGFMKASDGKTCLALDGHQLLAGGEVDLKNQVTPLDILSKTRVSEDNITESQHMLVAEIMVSDQDDCAPVGCSMYARCISEGEDATCQCLKGFAGDGKLCSDIDECEMGVPVCPPASSKCINTEGGYVCRCSEGYQGDGIHCLDIDECQLGEHSCGENASCTNTEGGYTCMCAGRLSEPGLICPDSTPPPHLREDDHHYSVRNSDSECPLSHDGYCLHDGVCMYIEALDKYACNCVVGYIGERCQYRDLKWWELRHAGHGQQQKVIVVAVCVVVLVMLLLLSLWGAHYYRTQKLLSKNPKNPYEESSRDVRSRRPADTEDGMSSCPQPWFVVIKEHQDLKNGGQPVAGEDGQAADGSMQPTSWRQEPQLCGMGTEQGCWIPVSSDKGSCPQVMERSFHMPSYGTQTLEGGVEKPHSLLSANPLWQQRALDPPHQMELTQ
modifications: Pro-epidermal growth factor
For B1, the “Effect of EGF on DEX-induced CYP3A induction” value [1] was “remained uniform” and the “Effect of EGF on DEX-induced CYP2B spatial distribution” value [2] was “significant shift in CYP2B spatial distribution was noted from inlet regions to the outlet”.
